B1: Caspase recruitment domain-containing protein 14 (Homo sapiens), Q9BXL6-1 (parent)
chain: MGELCRRDSALTALDEETLWEMMESHRHRIVRCICPSRLTPYLRQAKVLCQLDEEEVLHSPRLTNSAMRAGHLLDLLKTRGKNGAIAFLESLKFHNPDVYTLVTGLQPDVDFSNFSGLMETSKLTECLAGAIGSLQEELNQEKGQKEVLLRRCQQLQEHLGLAETRAEGLHQLEADHSRMKREVSAHFHEVLRLKDEMLSLSLHYSNALQEKELAASRCRSLQEELYLLKQELQRANMVSSCELELQEQSLRTASDQESGDEELNRLKEENEKLRSLTFSLAEKDILEQSLDEARGSRQELVERIHSLRERAVAAERQREQYWEEKEQTLLQFQKSKMACQLYREKVNALQAQVCELQKERDQAYSARDSAQREISQSLVEKDSLRRQVFELTDQVCELRTQLRQLQAEPPGVLKQEARTREPCPREKQRLVRMHAICPRDDSDCSLVSSTESQLLSDLSATSSRELVDSFRSSSPAPPSQQSLYKRVAEDFGEEPWSFSSCLEIPEGDPGALPGAKAGDPHLDYELLDTADLPQLESSLQPVSPGRLDVSESGVLMRRRPARRILSQVTMLAFQGDALLEQISVIGGNLTGIFIHRVTPGSAADQMALRPGTQIVMVDYEASEPLFKAVLEDTTLEEAVGLLRRVDGFCCLSVKVNTDGYKRLLQDLEAKVATSGDSFYIRVNLAMEGRAKGELQVHCNEVLHVTDTMFQGCGCWHAHRVNSYTMKDTAAHGTIPNYSRAQQQLIALIQDMTQQCTVTRKPSSGGPQKLVRIVSMDKAKASPLRLSFDRGQLDPSRMEGSSTCFWAESCLTLVPYTLVRPHRPARPRPVLLVPRAVGKILSEKLCLLQGFKKCLAEYLSQEEYEAWSQRGDIIQEGEVSGGRCWVTRHAVESLMEKNTHALLDVQLDSVCTLHRMDIFPIVIHVSVNEKMAKKLKKGLQRLGTSEEQLLEAARQEEGDLDRAPCLYSSLAPDGWSDLDGLLSCVRQAIADEQKKVVWTEQSPR
partner: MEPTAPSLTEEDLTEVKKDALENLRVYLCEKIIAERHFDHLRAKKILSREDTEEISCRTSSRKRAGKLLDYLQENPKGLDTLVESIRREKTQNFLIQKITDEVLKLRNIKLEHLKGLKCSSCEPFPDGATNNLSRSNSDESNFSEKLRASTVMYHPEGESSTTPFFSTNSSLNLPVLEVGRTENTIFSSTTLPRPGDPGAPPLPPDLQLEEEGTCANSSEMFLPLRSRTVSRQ
B2: Caspase recruitment domain-containing protein 14 (Homo sapiens), Q9BXL6-2 (parent)
chain: MGELCRRDSALTALDEETLWEMMESHRHRIVRCICPSRLTPYLRQAKVLCQLDEEEVLHSPRLTNSAMRAGHLLDLLKTRGKNGAIAFLESLKFHNPDVYTLVTGLQPDVDFSNFSGLMETSKLTECLAGAIGSLQEELNQEKGQKEVLLRRCQQLQEHLGLAETRAEGLHQLEADHSRMKREVSAHFHEVLRLKDEMLSLSLHYSNALQEKELAASRCRSLQEELYLLKQELQRANMVSSCELELQEQSLRTASDQESGDEELNRLKEENEKLRSLTFSLAEKDILEQSLDEARGSRQELVERIHSLRERAVAAERQREQYWEEKEQTLLQFQKSKMACQLYREKVNALQAQVCELQKERDQAYSARDSAQREISQSLVEKDSLRRQVFELTDQVCELRTQLRQLQAEPPGVLKQEARTREPCPREKQRLVRMHAICPRDDSDCSLVSSTESQLLSDLSATSSRELVDSFRSSSPAPPSQQSLYKRVAEDFGEEPWSFSSCLEIPEGDPGALPGAKAGDPHLDYELLDTADLPQLESSLQPVSPGRLDVSESGVLMRRRPARRILSQVTMLAFQGDALLEQISVIGGNLTGIFIHRVTPGSAADQMALRPGTQIVMVDYEASEPLFKAVLEDTTLEEAVGLLRRVDGFCCLSVKVNTDGYKRLLQDLEAKVATSGDSFYIRVNLAMEGRAKGELQVHCNEVLHVTDTMFQGCGCWHAHRVNSYTMKDTAAHGTIPNYSR
partner: B1 partner

Conditions in all cases: with bcl10_human BCL10, O95999
In test [1] the parent is B1.
Test [2] covers variants of B1. This is another data set of the same source.
The variants in test [3] derive from B2. This is another data set of the same source.
Test [4] covers variants of B2. The source holds these as a separate data set.

E138A: the “effect of a mutation on the interaction” value in test [1] is “with no effect”; in test [2], “increasing interaction strength”.

Take E138A: the “effect of a mutation on the interaction” value is “increasing interaction strength” in test [3] and “with no effect” in test [4].

For G117S, the “effect of a mutation on the interaction” value in test [3] is listed as “increasing interaction strength”; in test [4], “with no effect”.

Values taken from IntAct's records for PubMed 27071417.
